Results as given in the NTF2 design screens of Basanta et al. (2020).

Test: protease stability score; higher = more stable; yeast display proteolysis, trypsin and chymotrypsin;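 also: relative to predicted unfolded state with 0 unfolded-like and 1 meaning tenfold more protease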

With “SEDIKEIKDILRTMYEAFITGDWRTVAKLFDPHVRIEYDGVRLHGREHVEHFLRHLRERVEWHHIEDTQEQGDYIELHGRTILNIEIGDKRDRRDSHFILMMVKVDGRWLIHRIIIR” the protease stability score was 2.21.
For “SEDKDNAQDLLHHVVKAWNTGDEDLTRKLFDPHVRLDINGVEIHGWRDLLRVLRELRLRVEMRVHDADFINGVIHLYTTVHSHIHFNGVDFHFHHETRMIILKINGRWLVHSITYL”, the protease stability score was 0.675.
In the case of “SEDKEADEIIIEKIMRALTTGDENLWKRLLDPNVRFEYDGVEMHGWEEIKKLLERIDHFHVDDHKIKDVRIIDGRIDNYGRLRGTIDINGREIHTILHVRILVLKIDGKWTVESEHSK”, the protease stability score is reported as 1.43.
For “SEDKEAFHRVMKLLLHAWRTGDEDREKELFDPNVRFIIGDKIIIGREEWLKLLRRIDHLEVDLDIKRLEVIGDKIKAEFRLHEILKIDGVEIHQEHEVRLHLHKINGRWIIERVHVE”, the protease stability score was 0.845.
Sequence “SEDKEEAEEFVRIFNEALITGDFEFIEHLADPNVKYRQGEYHEHGRESLSHMFRFLGWSNVKIHLRHIKFYGDKIEVHGEVRIDGRTHWVNSYITKYDGRWYLTSLQIE” has a protease stability score of 1.21.
Work on “SEDKELADRFLNHITHLIRTGDENALSENLDPNTRLHIGDKHYIGWEEFLRIISERWKRADHQDVKLRDSRVQGDKVHLDGEIILIVDGKEIRHDFRIIVYKIDGRWHLESIRIG” yielded a protease stability score of 2.09.
For “SEDKELAERLYHLLLRTLITGDEKQLIDNMDPDARVHVGDKHRHGMEWMNRYLHELRIRDQDDKDIRLQGNKVHVDGHVRGNINGQEIDYRFHIELITINGVVHMINIQIR”, the protease stability score was 0.945.
In the case of “SEDKEMADWAIEIWVKSIRTGDEHTQLHLVDPHYREDVGDKEIHGRDELRRHMHEARVDEFRHKIDRMRTQGNKVHLDGIFQMKIRIDGKVDHIEFHSRLVVEKVDGRWLVKSLHIN”, the protease stability score is reported as 1.21.
“SEDKHMLELALKLLKDSWKTGDEHLSERLMDPHVRLEQGDKEFHGREASQLWFRQIDHVEDMHVHRIRMINGKAYMDVHVVGNVNGKHVEFHQHIVFHKVNGRWIVESVVDS” showed a protease stability score of 1.26.
For “SEDKKATNEASEIIIRLLKTGDEHLANHYIDPNVRMIFENRDVHGRETFEEWMRRVDHFHHYDVRHVHTQGDKINIDSEHNIHINGQEEIKDVYWISTKIDGKWILKSIEVR”, the protease stability score was 1.28.
Work on “SEDKKTLEHYFRELMHVLQTGDETEFVKLLDPDARLIIGDKSDHGREEVSRSLLEFQRILGIDHLEFRHTHLDIQGDKITIILQVRMKVNGREHHSRLIFVAEKVNGRWVLRSVIFEIH” yielded a protease stability score of 2.18.
Sequence “SEDKNAVHEIVERFLKAMLTGDEHILKTLLDPHVRLHIGDKSRVGMERVIHELIHIRIHELRVESMEMRLWDGRAEVHVFGEVRQRVDGQERNITTSIILHIEKIDGRWHLTQLQFIIS” has a protease stability score of 2.53.
For “SEDMERAESFHREWLEFSRTGDEDTLRSLLDPNARLRYGDKEYHGMDSLSRVDRELRVHDSRVHDLRIIDGRVHMDVDLDGTYNGKRVLLHTHFVVEKIDGRWILRSVHIH”, the protease stability score was 0.643.
In the case of “SEDNEHLRKFLEDFIRAMETGDWKMLFRLMDPNVRMEVNGRELHGREEAKKLIEEIISRYDHVHIEIKRAHSIGDKIEVWGISDVEIGDKKHEIPLLFILKKVDGKWIIHSIRSE”, the protease stability score is reported as 2.11.
“SEDNEIIHEMVQLFVDLFFTGDWEMLLSLFDPNVRMIVNGKTIHGRENIAHEVREFLERFKNVRFRDATIEHYSWQGDKLHAQIHIEGEINGRDRHSNVHIHITKIDGKWLITRIEVR” showed a protease stability score of 2.39.
For “SEDQEAMDRAIKIFEEIVDTGNERLSRENMDPRTRIVFEGVHLHGREEAVRHHRELWKRVDVMEMRTEDYRFFDGRVHQTTRLHLNYNGREETYETRFLVEKVNGKWFIKSIIIV”, the protease stability score was 0.272.
“SEDQEEAEHVFEQWIRVLTTGDEETAHKMADPNTRMHFNGKDIHGMDTIAKEFHDLGITLQSIRMRHVERQGDKIHIHSRRTFEVNGVHLNTEVHHSLVKIDGRWTFQHTYVH” gave a protease stability score of 0.086.
Sequence “SEDQEESEKFLKDLIRVILTGNEESLMKLADPHARFHIGDKTYIGWDKWVRMLSERVRDLGIRIEIRVHDFHVYNGVAENDHRHHVHFENHEYNHIMILHDDKINGKWTIRTLVIK” has a protease stability score of 1.13.
“SEDQEIAVKLLHEMMEALRTGDEDYLRRLFDPNMRFNQGDKTHHGMDWVHSFLRRYDYFEVRHVRVHHVEVQGEKIIIDGRLEGSIRVDGVLQENEISVIFIIIKINGKWFVQTIRFN” showed a protease stability score of 1.21.
Sequence “SEDQEMSDHASSLLLHTMETGDFRLLHEFLDPNTRVSVNGRDVIGRDETVRHMIEHIKILGVSKVEARLHDVKLINGVAENDVEIDFNGRRIRVWWFVEKINGRWVITHMRVL” has a protease stability score of 1.47.
For “SEDQEVAEKDLEIYSRAITTGNEHELKHLLDPNYKLIVNGQEYHGWETLRHYWKHLRVESVEFEIRSFDSQGDKLHIDGIIILHGEVDGRHTELFEDVHIRAHKINGRWHNKEVNIR”, the protease stability score was 0.897.
Sequence “SEDQHDAEWALRLFVRLHETGDFEEIYRNADPNMRWFVNGVDSHGRENASKLLHKLMDDLGIDHVQIEHVELRVQGEKIIVHMRVTQVINGREVDSRIEVHMEKFDGKWELKHVELRIH” has a protease stability score of 1.31.
With “SEDQHELTTLLEHLLRIHRTGDFHTLERLMDPNTWTLVDGVWFVGREAVEYSNKLIKFTKRIEIDHFEIQGEKATIHGTYHSHYNGREFHIHVTTYYQKINGRWVLHSIEFR” the protease stability score was 1.38.
“SEDQKFFEELVRLMYEYSLTGDWELSERLLDPNALIDIDGVEFHGREIFVESMRHIRLDHIEIRHVESINGRIHAKTEVDGTVNGQRRRRDVEIHLLKVNGRWYIRRVNFK” showed a protease stability score of 2.45.
“SEDQREIKDFFKILSKALTTGDEEITSAMMDPHVRMDYNGKEHHGRDFLTELMKRADHWEHRLEVRSVRIIGDKVDVEGHMILHILIGDKEIRVRVDLDIELWKVDGRWIVKEITIK” showed a protease stability score of 1.04.
“SEDREEYHELLKRMIHALMTGDWRDFEKLFDPNARLEVNGQIFHGREDVVKWLRDVLKRYDHIEHFRIRTEEYQGDKIIMDGELHKVINGQHIVTRVRIEVWVVDGRLKRRSEREE” showed a protease stability score of 1.51.
“SEDREFAEKMLRIVSDLENTGDEEKARHLLDPNVRSVIDGQDLIGWHLRRHWLHELRIKSHRVDVHDIHVYNGQIEFNVREDGNIVVNGVEIRIELRTKMTFRKFDGQWYVKSIEIK” showed a protease stability score of 1.45.
“SEDREFMKTDLERWRHDLLTGDEESSHRLADPHVRVYIGDKEFIGREELRRVLREFIERFKGARIEVRLRSLHLIDGRMHIDTEWHIHVGEKHIMLDIKINQDKVNGRWELRNEVIS” gave a protease stability score of 1.11.
“SEDRENFHRFWKELLRYYLTGDEDALTRMFDPNAQMIYGDKHYHGREVLEFIHHQVDVFRSVEIESSRSINGVVIIHVRLNGEYNGQQENTEFTLVFEKINGRWRIKQVRSE” gave a protease stability score of 1.11.
Work on “SEDRENIYRQIREVEEALKTGDEELMLHLMDPHVRIDINGRHNHGREEMVRFIREIRISLKHVDIHHVQDDENELIVHVRVNLVIEVDGKRREEEDNALFIFVKIDGRWVFSIIRIQ” yielded a protease stability score of 1.76.
In the case of “SEDREQVHRFFEQFSRDTLTGNEERNFEMADPHTRFDIDGRIIIGRDIILHHWKEEMRKHGAEMKIHIHHVRVQGDKATVDLRVEIHINGRTYEYKVVMIVEKIDGRWVLTQIKYE”, the protease stability score is reported as 0.365.
“SEDRESAKWFVEMELELFLTGDFEKRLHLADPNAKIRIEINGRKHSTHGMREFLEHLLRLGIDVSHVDHIQVENYNGKLEMNLNLDIRIDGQRRHVEIHIIVDKFDGRWVLRELKVNIR” showed a protease stability score of 0.642.
“SEDRKFIKEMFEETFRRWETGDEDHIRRYVDPHTKLRILIDGREHTHHGREEFTKMMIDLSEQLGIKHLHIENLHIQGDKAELRGREEVGDKDEHVTIIAHKVNGQWTIETLHIEVR” gave a protease stability score of -0.376.
Work on “SEDRKLAEILVKITMDILHTGDEEEWLKLLDPHTRIDFDGRDMHGREFFMKVFRDWGIDNIEVHLHDVKVQGDFLDINVSVHINGRKIDHRLIVEKIDGRWIIREFEVR” yielded a protease stability score of 1.58.
Sequence “SEDRQIAEQIVEDLSTSTVTGDWRLILELLDPDTRIVVDGVDLHGREEFLRFFERIDHMRARRTRLSDFRSYGDKVEADVDIKMEYIVDGRNITERFKERFIIIKVNGRWIVKEWRLK” has a protease stability score of 2.61.
Sequence “SEDSEDAKKVVEISIHTVVTGDEHTNTRLFDPHVRIEIGDKEIHGREKFVHIIRHWRMEAHVEVDEVKRQGDKVRVDGHVRIILDINGRKIDIESQVDVNILKVNGRWLIESEHIH” has a protease stability score of 1.08.
Sequence “SEDSEHAVEYMRLLRESMHTGDEKSWEDMMDPNMRILINGKDLIGWEEFSEFLRRFDHWEIRHVEIKDTKLINGRIELKGRMDIRLTINGKETSHVRNVHILSLKVNGRWILKSIEIE” has a protease stability score of 1.34.
With “SEDSEQALTIIEQLTKNLATGDEDTAEELVDPNVRINIGDKTIHGMHELSRFLLELRSEHRSHIRDVRVQGDKINVEGEDEIIIQVNGQEIRIRKHVHWIIDKIDGVWFVRSVNIH” the protease stability score was 1.89.
“SEDSERAREVWEDLFKAILTGDEDLLRELVDPNVRLEIGDKELVGWEHMIYHLRDHLRRYKNMRLELRIRHVEHQGDKLHLNVLLILIQGDKRIEFEVEVLIEKVNGRWILKEIRIK” gave a protease stability score of 1.38.
Work on “SEDTATAHLMVEYFTKSVHTGDEHTTKRQVDPTMRFDFNGKQIIGREKWKEDLLHWRMETTSHVDDFKLQGDKVRSRTTLHMILHFDGVVYHNTYDTEIIYHKVDGRWYFTEFHVR” yielded a protease stability score of 1.14.
“SEDTEKIRKFEELLIRLLETGDFDTLTRLLDPHVRYVYNGQDFHGWEFLLHYLRELGVKHFHFRDFRIQGDWAHIDSEVVVGDKHYKTRIVLLKFDGRWRLHMIEVV” showed a protease stability score of 2.44.
Work on “SEDTEMVRIVLEHIEHVWRTGDEHTLRELMDPHVRMDINGREHHGREHVSEIFEQEMRELGADHFRIDHKHVRIINGRIILYLRVKTHIGEKRLDIEIIIILSKVDGRWFIKEISIRHI” yielded a protease stability score of 1.11.
With “SEDTRIAEELWRIMMDADRTGDEDRSKEMIDPNTQFIFNGRDVIGREVWAELFLRIDHIHLRDVEIHDSEVFNGKIHIDGHVDQEIRIGDKTLVEKVKVELIVLKINGKWLLKEVRFH” the protease stability score was 1.35.
With “SEDTRLKEEFLRRVLESEHTGDFESLQEMLDPNTRIEFNGQELIGREEAERILHQARIHDVKIKSMRLIDGRIELNGVLDGNFNGRRRHLEVRIYITKIDGRWVLESIEIE” the protease stability score was 1.49.
“SEDVEFIVRFIERFWHLLLTGNEEEFEKLLDPHVRIEINGVNLVGREEVTDWFKHIRIDDMRMIFRHSSVVDGRVNVIGALRRDGHINGQRVTEERDTRLHLYKVNGQWFLTEIELH” gave a protease stability score of 1.5.
For “SEDVERVRHSIIVWLHILLTGDEETISKYADPNARYVQGDKHHHGMEYIAIKIRELRWSVTMEIEHMHVVDGRAHIEGRLILRIHINGKEDVEDHELELHMIKVDGKWILHEIKIK”, the protease stability score was 1.59.
“SEDVRDAHEMARIFLEVFRTGNEHHHERMMDPHARVRFDGVDHHGREESTKLLLELWRRVDHLHMDITDLRVQGDKVEVHIRLENRYNGRTHIIHVHLVMIKVDGRWVIREIHFD” gave a protease stability score of 0.752.
“SEEDDDSREVLELFVRLMVTGDFHELAELLDPNVRTHINGKERVGREQMIKILKRLFDEWGVDRVIVHVKHIDVQGEKAHMDGTLIYGDKMQKSHVTLIYVNGRLERIHIELN” showed a protease stability score of 1.13.
For “SEEDDQAEEFARKMITDFLTGNWKKMMDLFDPNVRLRWHVDGRDKHHIGREVVSEILRRYVEEIRIHSISIESVENYDGVSIVHSHYEWEVNGQKRETHVLLEFVIINGRARSISIHIH”, the protease stability score was 1.11.
In the case of “SEEDEADHELVQWMLEILQTGDEETFRTFADPSTRHISHIDGKEMHIHGRESASEVLLTTWKELGVDVFHLHQYRYFNGRVDIEFELHQGNKTIELHFHYQIINGRLKRIEIRVHHE”, the protease stability score is reported as 1.14.
